# Patent US9260500B2, “Peptide and use thereof” (Takeda Pharmaceutical Company Limited, priority 2009, dated 2016)
# Starred links: 1 amine or outer side, 2 acyl side, 3 side chain; linkers in the order of their positions; H or OH if unused. Non-standard residues stand in square brackets, D forms with d. *: point of attachment. Ala(piperidin-4-yl) = O=C([C@H](CC1CCN([*:3])CC1)N[*:1])[*:2]; Tyr(3-F) = N[C@@H](Cc1ccc(O)c(F)c1)C(=O)O; Hyp = O=C(O)[C@@H]1C[C@@H](O)CN1; tBuAla = CC(C)(C)C[C@H](N)C(=O)O; 4Pal = N[C@@H](Cc1ccncc1)C(=O)O; dHyp = O=C(O)[C@H]1C[C@H](O)CN1; Aad = N[C@@H](CCCC(=O)O)C(=O)O; Cha = N[C@@H](CC1CCCCC1)C(=O)O; Gly(cPr) = N[C@H](C(=O)O)C1CC1; dIva = CC[C@@](C)(N)C(=O)O; Isobutyryl = CC(C)C(=O)*; Abu = CC[C@H](N)C(=O)O; Aib = CC(C)(N)C(=O)O
# Experiments:
# human Y2 receptor [1] = biological target: T1, human Y2 receptor (Homo sapiens, UniProt P49146); test: Human Y2 Receptor G Protein Binding Assay (GBA), [35S]GTPγS; type: biochemical; settings: EC50 of test compound/EC50 of PYY(3-36) (PYY3-36 taken as 1), hY2R/CHO membrane fraction
# T1 construct: expressed in transfected cells; membrane fraction
# T1 sequence (P49146 1-381): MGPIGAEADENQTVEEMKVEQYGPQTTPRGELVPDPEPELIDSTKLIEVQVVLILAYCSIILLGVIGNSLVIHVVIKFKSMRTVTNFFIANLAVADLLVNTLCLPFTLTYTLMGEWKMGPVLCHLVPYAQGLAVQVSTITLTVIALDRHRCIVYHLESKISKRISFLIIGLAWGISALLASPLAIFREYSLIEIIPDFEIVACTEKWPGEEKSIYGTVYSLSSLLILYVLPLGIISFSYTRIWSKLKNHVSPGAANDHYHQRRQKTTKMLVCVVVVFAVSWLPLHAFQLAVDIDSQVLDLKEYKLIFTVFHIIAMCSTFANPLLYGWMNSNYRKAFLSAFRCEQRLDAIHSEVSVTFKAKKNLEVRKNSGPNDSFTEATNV
# Outline: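 Agonism measured as [35S]GTPγS binding, read by GF/C filtration and scintillation counting after 120 min at room temperature, using human Y2 membranes at 1 μg protein/mL in pH 7.4 Tris/MgCl2/NaCl/GDP buffer. Compound serially diluted 100 μM–1 nM; EC50 normalized to PYY(3-36) (ratio = compound/PYY).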
# human Y2 receptor [2] = biological target: T1, human Y2 receptor; test: Receptor Binding Assay (RBA) for Human Y2, [125I]-PYY displacement on hY2R/CHO membrane fraction; settings: IC50 of test compound/IC50 of PYY(3-36) (PYY(3-36) taken as 1)
# Outline: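 Read-out is [125I]-PYY displacement from membranes of CHO/dhfr− cells stably transfected with human Y2R. Membranes were obtained by disrupting cells in a buffer of 10 mM NaHCO3, 5 mM EDTA and protease inhibitors.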
GBA EC50 Ratio (human Y2 receptor [1]),RBA IC50 Ratio (human Y2 receptor [2]),Substance
1.6,0.70,"Ac-[D-Pro24, Pya(4)26, Cha27,36, D-Iva28,31, Lys30]-PYY(23-36) (Ac-S[dP]R[4Pal][Cha][dIva]NK[dIva]TRQR[Cha]-NH2; SMILES CC[C@@](C)(NC(=O)[C@H](CC1CCCCC1)NC(=O)[C@H](Cc1ccncc1)NC(=O)[C@H](CCCNC(=N)N)NC(=O)[C@H]1CCCN1C(=O)[C@H](CO)NC(C)=O)C(=O)N[C@@H](CC(N)=O)C(=O)N[C@@H](CCCCN)C(=O)N[C@](C)(CC)C(=O)N[C@H](C(=O)N[C@@H](CCCNC(=N)N)C(=O)N[C@@H](CCC(N)=O)C(=O)N[C@@H](CCCNC(=N)N)C(=O)N[C@@H](CC1CCCCC1)C(N)=O)[C@@H](C)O) [compound No. 247]"
3.9,3.8,"Ac-[D-Pro24, Pya(4)26, Ala(4Pip)27, Aib28,31, Lys30, Cha36]-PYY(23-36) [compound No. 309] (Ac-S[dP]R[4Pal][Ala(piperidin-4-yl)][Aib]NK[Aib]TRQR[Cha]-NH2; SMILES CC(=O)N[C@@H](CO)C(=O)N1CCC[C@@H]1C(=O)N[C@@H](CCCNC(=N)N)C(=O)N[C@@H](Cc1ccncc1)C(=O)N[C@@H](CC1CCNCC1)C(=O)NC(C)(C)C(=O)N[C@@H](CC(N)=O)C(=O)N[C@@H](CCCCN)C(=O)NC(C)(C)C(=O)N[C@H](C(=O)N[C@@H](CCCNC(=N)N)C(=O)N[C@@H](CCC(N)=O)C(=O)N[C@@H](CCCNC(=N)N)C(=O)N[C@@H](CC1CCCCC1)C(N)=O)[C@@H](C)O)"
0.76,0.38,"Ac-[D-Hyp24, Cha27,36, Leu(Me)28, Lys30, Aib31]-PYY(23-36) (Ac-S[dHyp]RH[Cha][tBuAla]NK[Aib]TRQR[Cha]-NH2; SMILES CC(=O)N[C@@H](CO)C(=O)N1C[C@@H](O)C[C@@H]1C(=O)N[C@@H](CCCNC(=N)N)C(=O)N[C@@H](Cc1c[nH]cn1)C(=O)N[C@@H](CC1CCCCC1)C(=O)N[C@@H](CC(C)(C)C)C(=O)N[C@@H](CC(N)=O)C(=O)N[C@@H](CCCCN)C(=O)NC(C)(C)C(=O)N[C@H](C(=O)N[C@@H](CCCNC(=N)N)C(=O)N[C@@H](CCC(N)=O)C(=O)N[C@@H](CCCNC(=N)N)C(=O)N[C@@H](CC1CCCCC1)C(N)=O)[C@@H](C)O) [compound No. 203]"
3.1,2.6,"Isobutanoyl-[Asp23, D-Hyp24, Cha27,28,36, Aib31]-PYY(23-36) (Isobutyryl-D[dHyp]RH[Cha][Cha]NL[Aib]TRQR[Cha]-NH2; SMILES CC(C)C[C@H](NC(=O)[C@H](CC(N)=O)NC(=O)[C@H](CC1CCCCC1)NC(=O)[C@H](CC1CCCCC1)NC(=O)[C@H](Cc1c[nH]cn1)NC(=O)[C@H](CCCNC(=N)N)NC(=O)[C@H]1C[C@H](O)CN1C(=O)[C@H](CC(=O)O)NC(=O)C(C)C)C(=O)NC(C)(C)C(=O)N[C@H](C(=O)N[C@@H](CCCNC(=N)N)C(=O)N[C@@H](CCC(N)=O)C(=O)N[C@@H](CCCNC(=N)N)C(=O)N[C@@H](CC1CCCCC1)C(N)=O)[C@@H](C)O) [compound No. 127]"
37,31,"Isobutanoyl-[Abu26,27, Cha28,36, Aib31]-PYY(25-36) (Isobutyryl-R[Abu][Abu][Cha]NL[Aib]TRQR[Cha]-NH2; SMILES CC[C@H](NC(=O)[C@H](CCCNC(=N)N)NC(=O)C(C)C)C(=O)N[C@@H](CC)C(=O)N[C@@H](CC1CCCCC1)C(=O)N[C@@H](CC(N)=O)C(=O)N[C@@H](CC(C)C)C(=O)NC(C)(C)C(=O)N[C@H](C(=O)N[C@@H](CCCNC(=N)N)C(=O)N[C@@H](CCC(N)=O)C(=O)N[C@@H](CCCNC(=N)N)C(=O)N[C@@H](CC1CCCCC1)C(N)=O)[C@@H](C)O) [compound No. 94]"
28,26,"Isobutanoyl-[Abu26, Cha27,28,36, Ser30, Aib31]-PYY(25-36) (Isobutyryl-R[Abu][Cha][Cha]NS[Aib]TRQR[Cha]-NH2; SMILES CC[C@H](NC(=O)[C@H](CCCNC(=N)N)NC(=O)C(C)C)C(=O)N[C@@H](CC1CCCCC1)C(=O)N[C@@H](CC1CCCCC1)C(=O)N[C@@H](CC(N)=O)C(=O)N[C@@H](CO)C(=O)NC(C)(C)C(=O)N[C@H](C(=O)N[C@@H](CCCNC(=N)N)C(=O)N[C@@H](CCC(N)=O)C(=O)N[C@@H](CCCNC(=N)N)C(=O)N[C@@H](CC1CCCCC1)C(N)=O)[C@@H](C)O) [compound No. 89]"

# Second part, the substance before the results:
Substance,GBA EC50 Ratio (human Y2 receptor [1]),RBA IC50 Ratio (human Y2 receptor [2])
"Isobutanoyl-[Abu26, Cha27,36, Ser28, Aib31]-PYY(25-36) (Isobutyryl-R[Abu][Cha]SNL[Aib]TRQR[Cha]-NH2; SMILES CC[C@H](NC(=O)[C@H](CCCNC(=N)N)NC(=O)C(C)C)C(=O)N[C@@H](CC1CCCCC1)C(=O)N[C@@H](CO)C(=O)N[C@@H](CC(N)=O)C(=O)N[C@@H](CC(C)C)C(=O)NC(C)(C)C(=O)N[C@H](C(=O)N[C@@H](CCCNC(=N)N)C(=O)N[C@@H](CCC(N)=O)C(=O)N[C@@H](CCCNC(=N)N)C(=O)N[C@@H](CC1CCCCC1)C(N)=O)[C@@H](C)O) [compound No. 102]",35,49
"Ac-[D-Pro24, Aib26,28,31, Cha27,36, Lys30]-PYY(23-36) (Ac-S[dP]R[Aib][Cha][Aib]NK[Aib]TRQR[Cha]-NH2; SMILES CC(=O)N[C@@H](CO)C(=O)N1CCC[C@@H]1C(=O)N[C@@H](CCCNC(=N)N)C(=O)NC(C)(C)C(=O)N[C@@H](CC1CCCCC1)C(=O)NC(C)(C)C(=O)N[C@@H](CC(N)=O)C(=O)N[C@@H](CCCCN)C(=O)NC(C)(C)C(=O)N[C@H](C(=O)N[C@@H](CCCNC(=N)N)C(=O)N[C@@H](CCC(N)=O)C(=O)N[C@@H](CCCNC(=N)N)C(=O)N[C@@H](CC1CCCCC1)C(N)=O)[C@@H](C)O) [compound No. 235]",2.7,2.1
"Ac-[Phe23, D-Pro24, Abu26, Cha27,28,36, Aib31]-PYY(23-36) (Ac-F[dP]R[Abu][Cha][Cha]NL[Aib]TRQR[Cha]-NH2; SMILES CC[C@H](NC(=O)[C@H](CCCNC(=N)N)NC(=O)[C@H]1CCCN1C(=O)[C@H](Cc1ccccc1)NC(C)=O)C(=O)N[C@@H](CC1CCCCC1)C(=O)N[C@@H](CC1CCCCC1)C(=O)N[C@@H](CC(N)=O)C(=O)N[C@@H](CC(C)C)C(=O)NC(C)(C)C(=O)N[C@H](C(=O)N[C@@H](CCCNC(=N)N)C(=O)N[C@@H](CCC(N)=O)C(=O)N[C@@H](CCCNC(=N)N)C(=O)N[C@@H](CC1CCCCC1)C(N)=O)[C@@H](C)O) [compound No. 107]",5.9,12
"Isobutanoyl-[Abu26, Cha27,28, Aib31, Tyr(3F)36]-PYY(25-36) (Isobutyryl-R[Abu][Cha][Cha]NL[Aib]TRQR[Tyr(3-F)]-NH2; SMILES CC[C@H](NC(=O)[C@H](CCCNC(=N)N)NC(=O)C(C)C)C(=O)N[C@@H](CC1CCCCC1)C(=O)N[C@@H](CC1CCCCC1)C(=O)N[C@@H](CC(N)=O)C(=O)N[C@@H](CC(C)C)C(=O)NC(C)(C)C(=O)N[C@H](C(=O)N[C@@H](CCCNC(=N)N)C(=O)N[C@@H](CCC(N)=O)C(=O)N[C@@H](CCCNC(=N)N)C(=O)N[C@@H](Cc1ccc(O)c(F)c1)C(N)=O)[C@@H](C)O) [compound No. 87]",20,26
"Isobutanoyl-[Abu26, Cha27,36, Gly(cPr)28, Aib31]-PYY(25-36) (Isobutyryl-R[Abu][Cha][Gly(cPr)]NL[Aib]TRQR[Cha]-NH2; SMILES CC[C@H](NC(=O)[C@H](CCCNC(=N)N)NC(=O)C(C)C)C(=O)N[C@@H](CC1CCCCC1)C(=O)N[C@H](C(=O)N[C@@H](CC(N)=O)C(=O)N[C@@H](CC(C)C)C(=O)NC(C)(C)C(=O)N[C@H](C(=O)N[C@@H](CCCNC(=N)N)C(=O)N[C@@H](CCC(N)=O)C(=O)N[C@@H](CCCNC(=N)N)C(=O)N[C@@H](CC1CCCCC1)C(N)=O)[C@@H](C)O)C1CC1) [compound No. 93]",41,52
"Ac-[Aad23, D-Pro24, Cha27,28,36, Aib31]-PYY(23-36) (Ac-[Aad][dP]RH[Cha][Cha]NL[Aib]TRQR[Cha]-NH2; SMILES CC(=O)N[C@@H](CCCC(=O)O)C(=O)N1CCC[C@@H]1C(=O)N[C@@H](CCCNC(=N)N)C(=O)N[C@@H](Cc1c[nH]cn1)C(=O)N[C@@H](CC1CCCCC1)C(=O)N[C@@H](CC1CCCCC1)C(=O)N[C@@H](CC(N)=O)C(=O)N[C@@H](CC(C)C)C(=O)NC(C)(C)C(=O)N[C@H](C(=O)N[C@@H](CCCNC(=N)N)C(=O)N[C@@H](CCC(N)=O)C(=O)N[C@@H](CCCNC(=N)N)C(=O)N[C@@H](CC1CCCCC1)C(N)=O)[C@@H](C)O) [compound No. 159]",1.2,2.8
"Ac-[Hyp23, D-Pro24, Cha27,28,36, Aib31]-PYY(23-36) (Ac-[Hyp][dP]RH[Cha][Cha]NL[Aib]TRQR[Cha]-NH2; SMILES CC(=O)N1C[C@H](O)C[C@H]1C(=O)N1CCC[C@@H]1C(=O)N[C@@H](CCCNC(=N)N)C(=O)N[C@@H](Cc1c[nH]cn1)C(=O)N[C@@H](CC1CCCCC1)C(=O)N[C@@H](CC1CCCCC1)C(=O)N[C@@H](CC(N)=O)C(=O)N[C@@H](CC(C)C)C(=O)NC(C)(C)C(=O)N[C@H](C(=O)N[C@@H](CCCNC(=N)N)C(=O)N[C@@H](CCC(N)=O)C(=O)N[C@@H](CCCNC(=N)N)C(=O)N[C@@H](CC1CCCCC1)C(N)=O)[C@@H](C)O) [compound No. 126]",5.0,7.3
